# Measured values: article PMC11098746 (2024)
# B1: ADP278 (protein)
# chain: IQAKLIFLNFVRVPYFIDLKKPQDQGLNHTCNYYLQPEEDVTIGVWHTVPAVWWKNAQGKDQMWYEDALASSHPIILYLHGNAGTRGGDHRVELYKVLSSLGYHVVTFDYRGWGDSVGTPSERGMTYDALHVFDWIKARSGDNPVYIWGHSLGTGVATNLVRRLCERETPPDALILESPFTNIREEAKSHPFSVIYRYFPGFDWFFLDPITSSGIKFANDENVKHISCPLLILHAEDDPVVPFQLGRKLYSIAAPARSFRDFKVQFVPFHSDLGYRHKYIYKSPELPRILREFLGKSEPEHQH
# modifications: bait human Fc-tagged dimer
# B2: ADP355 (protein)
# chain: MALLLLHPAFQSCLLLTLLGLWRTTPEAHASSLGAPAISAASFLQDLIHRYGEGDSLTLQQLKALLNHLDVGVGRGNVTQHVQGHRNLSTCFSSGDLFTAHNFSEQSRIGSSELQEFCPTILQQLDSRACTSENQENEENEQTEEGRPSAVEVWGYG
# modifications: bait human Fc-tagged dimer
# B3: ADP140 (protein)
# chain: MELRVLLCWASLAAALEETLLNTKLETADLKWVTFPQVDGQWEELSGLDEEQHSVRTYEVCDVQRAPGQAHWLRTGWVPRRGAVHVYATLRFTMLECLSLPRAGRSCKETFTVFYYESDADTATALTPAWMENPYIKVDTVAAEHLTRKRPGAEATGKVNVKTLRLGPLSKAGFYLAFQDQGACMALLSLHLFYKKCAQLTVNLTRFPETVPRELVVPVAGSCVVDAVPAPGPSPSLYCREDGQWAEQPVTGCSCAPGFEAAEGNTKCRACAQGTFKPLSGEGSCQPCPANSHSNTIGSAVCQCRVGYFRARTDPRGAPCTTPPSAPRSVVSRLNGSSLHLEWSAPLESGGREDLTYALRCRECRPGGSCAPCGGDLTFDPGPRDLVEPWVVVRGLRPDFTYTFEVTALNGVSSLATGPVPFEPVNVTTDREVPPAVSDIRVTRSSPSSLSLAWAVPRAPSGAVLDYEVKYHEKGAEGPSSVRFLKTSENRAELRGLKRGASYLVQVRARSEAGYGPFGQEHHSQTQLDESEGWREQLAL
# modifications: bait human Fc-tagged dimer
# B4: ADP381 (protein)
# chain: SQEKNKNANSSPVASTTPSASATTNPASATTLDQSKAWNRYRLPNTLKPDSYRVTLRPYLTPNDRGLYVFKGSSTVRFTCKEATDVIIIHSKKLNYTLSQGHRVVLRGVGGSQPPDIDKTELVEPTEYLVVHLKGSLVKDSQYEMDSEFEGELADDLAGFYRSEYMEGNVRKVVATTQMQAADARKSFPCFDEPAMKAEFNITLIHPKDLTALSNMLPKGPSTPLPEDPNWNVTEFHTTPKMSTYLLAFIVSEFDYVEKQASNGVLIRIWARPSAIAAGHGDYALNVTGPILNFFAGHYDTPYPLPKSDQIGLPDFNAGAMENWGLVTYRENSLLFDPLSSSSSNKERVVTVIAHELAHQWFGNLVTIEWWNDLWLNEGFASYVEYLGADYAEPTWNLKDLMVLNDVYRVMAVDALASSHPLSTPASEINTPAQISELFDAISYSKGASVLRMLSSFLSEDVFKQGLASYLHTFAYQNTIYLNLWDHLQEAVNNRSIQLPTTVRDIMNRWTLQMGFPVITVDTSTGTLSQEHFLLDPDSNVTRPSEFNYVWIVPITSIRDGRQQQDYWLIDVRAQNDLFSTSGNEWVLLNLNVTGYYRVNYDEENWRKIQTQLQRDHSAIPVINRAQIINDAFNLASAHKVPVTLALNNTLFLIEERQYMPWEAALSSLSYFKLMFDRSEVYGPMKNYLKKQVTPLFIHFRNNTNNWREIPENLMDQYSEVNAISTACSNGVPECEEMVSGLFKQWMENPNNNPIHPNLRSTVYCNAIAQGGEEEWDFAWEQFRNATLVNEADKLRAALACSKELWILNRYLSYTLNPDLIRKQDATSTIISITNNVIGQGLVWDFVQSNWKKLFNDYGGGSFSFSNLIQAVTRRFSTEYELQQLEQFKKDNEETGFGSGTRALEQALEKTKANIKWVKENKEVVLQWFTENSK
# modifications: bait human Fc-tagged dimer
# B5: ADP349 (protein)
# chain: MAAAGPRRSVRGAVCLHLLLTLVIFSRAGEACKKVILNVPSKLEADKIIGRVNLEECFRSADLIRSSDPDFRVLNDGSVYTARAVALSDKKRSFTIWLSDKRKQTQKEVTVLLEHQKKVSKTRHTRETVLRRAKRRWAPIPCSMQENSLGPFPLFLQQVESDAAQNYTVFYSISGRGVDKEPLNLFYIERDTGNLFCTRPVDREEYDVFDLIAYASTADGYSADLPLPLPIRVEDENDNHPVFTEAIYNFEVLESSRPGTTVGVVCATDRDEPDTMHTRLKYSILQQTPRSPGLFSVHPSTGVITTVSHYLDREVVDKYSLIMKVQDMDGQFFGLIGTSTCIITVTDSNDNAPTFRQNAYEAFVEENAFNVEILRIPIEDKDLINTANWRVNFTILKGNENGHFKISTDKETNEGVLSVVKPLNYEENRQVNLEIGVNNEAPFARDIPRVTALNRALVTVHVRDLDEGPECTPAAQYVRIKENLAVGSKINGYKAYDPENRNGNGLRYKKLHDPKGWITIDEISGSIITSKILDREVETPKNELYNITVLAIDKDDRSCTGTLAVNIEDVNDNPPEILQEYVVICKPKMGYTDILAVDPDEPVHGAPFYFSLPNTSPEISRLWSLTKVNDTAARLSYQKNAGFQEYTIPITVKDRAGQAATKLLRVNLCECTHPTQCRATSRSTGVILG
# modifications: bait human Fc-tagged dimer
# B6: ADP357 (protein)
# chain: MGPPSAPPCRLHVPWKEVLLTASLLTFWNPPTTAKLTIESTPFNVAEGKEVLLLAHNLPQNRIGYSWYKGERVDGNSLIVGYVIGTQQATPGPAYSGRETIYPNASLLIQNVTQNDTGFYTLQVIKSDLVNEEATGQFHVYPELPKPSISSNNSNPVEDKDAVAFTCEPEVQNTTYLWWVNGQSLPVSPRLQLSNGNMTLTLLSVKRNDAGSYECEIQNPASANRSDPVTLNVLYGPDGPTISPSKANYRPGENLNLSCHAASNPPAQYSWFINGTFQQSTQELFIPNITVNNSGSYMCQAHNSATGLNRTTVTMITVSGSAP
# modifications: bait human Fc-tagged dimer
# B7: ADP371 (protein)
# chain: MRRAWILLTLGLVACVSAESRAELTSDKDMYLDNSSIEEASGVYPIDDDDYASASGSGADEDVESPELTTSRPLPKILLTSAAPKVETTTLNIQNKIPAQTKSPEETDKEKVHLSDSERKMDPAEEDTNVYTEKHSDSLFKRTE
# modifications: bait human Fc-tagged dimer
# B8: ADP129 (protein)
# chain: MFPFYSCWRTGLLLLLLAVAVRESWQTEEKTCDLVGEKGKESEKELALVKRLKPLFNKSFESTVGQGSDTYIYIFRVCREAGNHTSGAGLVQINKSNGKETVVGRLNETHIFNGSNWIMLIYKGGDEYDNHCGKEQRRAVVMISCNRHTLADNFNPVSEERGKVQDCFYLFEMDSSLACSPEISHLS
# modifications: bait human Fc-tagged dimer
# B9: ADP266 (protein)
# chain: EEFRPEMLQGKKVIVTGASKGIGREMAYHLAKMGAHVVVTARSKETLQKVVSHCLELGAASAHYIAGTMEDMTFAEQFVAQAGKLMGGLDMLILNHITNTSLNLFHDDIHHVRKSMEVNFLSYVVLTVAALPMLKQSNGSIVVVSSLAGKVAYPMVAAYSASKFALDGFFSSIRKEYSVSRVNVSITLCVLGLIDTETAMKAVSGIVHMQAAPKEECALEIIKGGALRQEEVYYDSSLWTTLLIRNPCRKILEFLYSTSYNMDRFINK
# modifications: bait human Fc-tagged dimer
# Biological target: Circumsporozoite protein (CSP) (Plasmodium falciparum (isolate 3D7), UniProt Q7K740)
# Sequence (Q7K740 19-374): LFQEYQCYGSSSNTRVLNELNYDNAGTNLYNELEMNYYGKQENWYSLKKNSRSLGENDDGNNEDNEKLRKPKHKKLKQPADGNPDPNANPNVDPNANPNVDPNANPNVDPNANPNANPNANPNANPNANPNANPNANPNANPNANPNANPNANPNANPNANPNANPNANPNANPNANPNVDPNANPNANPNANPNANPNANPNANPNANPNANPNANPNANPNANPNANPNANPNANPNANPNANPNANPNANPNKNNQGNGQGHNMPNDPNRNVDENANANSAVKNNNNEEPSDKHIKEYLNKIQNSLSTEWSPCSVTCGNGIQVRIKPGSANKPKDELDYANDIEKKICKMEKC
# Assay: AVEXIS screen signal:noise (double-corrected)
row,Binder,binding score
1,B1,0.76
2,B2,0.935
3,B3,1.91
4,B4,0.803
5,B5,0.666
6,B6,0.755
7,B7,1.57
8,B8,1.25
9,B9,0.642
